Columns and labels:
Assay in all cases: flow, Jurkat, 100 nM Ab
human CD161 = target: T1, human CD161 (human, UniProt Q12918 1-225)
T1 construct: UniProt Q12918; also called hCD161; KLRB1

Human KLRF1 = target: T2, Human KLRF1 (human, UniProt Q9NZS2 1-231)
T2 construct: also called hKLRF1
T2 sequence: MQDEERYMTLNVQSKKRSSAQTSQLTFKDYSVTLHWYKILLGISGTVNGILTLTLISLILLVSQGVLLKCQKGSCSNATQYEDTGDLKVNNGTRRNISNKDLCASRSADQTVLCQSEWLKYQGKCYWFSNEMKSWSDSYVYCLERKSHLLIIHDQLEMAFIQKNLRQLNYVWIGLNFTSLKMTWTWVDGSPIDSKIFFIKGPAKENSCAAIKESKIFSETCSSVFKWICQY

Human CD94 = target: T3, Human CD94 (human, UniProt Q13241 1-179)
T3 construct: also called hCD94
T3 sequence: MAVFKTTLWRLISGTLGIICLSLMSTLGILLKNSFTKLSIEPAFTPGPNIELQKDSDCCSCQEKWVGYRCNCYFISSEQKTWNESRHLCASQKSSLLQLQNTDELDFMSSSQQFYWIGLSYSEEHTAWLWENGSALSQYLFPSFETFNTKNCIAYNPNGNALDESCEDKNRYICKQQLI

Human KLRF2 = target: T4, Human KLRF2 (human, UniProt D3W0D1 1-207)
T4 construct: also called hKLRF2
T4 sequence: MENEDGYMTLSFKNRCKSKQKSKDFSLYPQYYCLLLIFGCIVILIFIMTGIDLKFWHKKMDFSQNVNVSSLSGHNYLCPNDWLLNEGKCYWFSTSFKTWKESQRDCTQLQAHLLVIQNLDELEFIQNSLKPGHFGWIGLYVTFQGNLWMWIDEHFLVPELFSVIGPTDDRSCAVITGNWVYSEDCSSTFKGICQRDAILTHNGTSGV

Human Clec12B = target: T5, Human Clec12B (human, UniProt Q2HXU8 1-276)
T5 construct: also called hClec12B
T5 sequence: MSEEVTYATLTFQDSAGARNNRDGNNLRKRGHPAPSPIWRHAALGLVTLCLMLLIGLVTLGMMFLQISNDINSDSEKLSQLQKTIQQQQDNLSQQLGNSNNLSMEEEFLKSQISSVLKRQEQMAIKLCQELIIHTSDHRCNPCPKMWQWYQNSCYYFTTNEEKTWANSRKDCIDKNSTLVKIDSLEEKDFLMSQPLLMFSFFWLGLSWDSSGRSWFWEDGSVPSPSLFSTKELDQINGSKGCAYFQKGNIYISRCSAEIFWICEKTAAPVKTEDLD

Human Clec7A = target: T6, Human Clec7A (human, UniProt Q9BXN2 1-247)
T6 construct: also called hClec7A
T6 sequence: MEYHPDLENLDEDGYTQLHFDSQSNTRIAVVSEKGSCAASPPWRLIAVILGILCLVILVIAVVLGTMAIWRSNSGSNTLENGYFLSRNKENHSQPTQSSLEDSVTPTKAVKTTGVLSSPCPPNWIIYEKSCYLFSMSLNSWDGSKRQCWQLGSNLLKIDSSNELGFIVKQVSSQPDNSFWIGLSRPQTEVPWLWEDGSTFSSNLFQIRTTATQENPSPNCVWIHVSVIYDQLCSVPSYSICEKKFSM

Human KLRG1 = target: T7, Human KLRG1 (human, UniProt Q96E93 1-195)
T7 construct: also called hKLRG1
T7 sequence: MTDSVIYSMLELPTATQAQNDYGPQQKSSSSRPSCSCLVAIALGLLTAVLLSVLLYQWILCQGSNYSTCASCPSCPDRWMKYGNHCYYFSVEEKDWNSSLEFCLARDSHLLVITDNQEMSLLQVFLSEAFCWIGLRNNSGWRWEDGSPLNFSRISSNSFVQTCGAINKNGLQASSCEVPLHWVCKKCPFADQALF

Human OLR1 = target: T8, Human OLR1 (human, UniProt P78380 1-273)
T8 construct: also called hOLR1

Human Clec5A = target: T9, Human Clec5A (human, UniProt Q9NY25 1-188)
T9 construct: also called hClec5A
T9 sequence: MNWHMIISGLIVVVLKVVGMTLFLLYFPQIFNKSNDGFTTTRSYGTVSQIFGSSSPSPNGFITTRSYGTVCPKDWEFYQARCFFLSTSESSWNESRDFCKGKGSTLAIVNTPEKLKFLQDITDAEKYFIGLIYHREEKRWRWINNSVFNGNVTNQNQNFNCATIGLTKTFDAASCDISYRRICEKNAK

Human Clec9A = target: T10, Human Clec9A (human, UniProt Q6UXN8 1-241)
T10 construct: also called hClec9A
T10 sequence (Q6UXN8 whole entry): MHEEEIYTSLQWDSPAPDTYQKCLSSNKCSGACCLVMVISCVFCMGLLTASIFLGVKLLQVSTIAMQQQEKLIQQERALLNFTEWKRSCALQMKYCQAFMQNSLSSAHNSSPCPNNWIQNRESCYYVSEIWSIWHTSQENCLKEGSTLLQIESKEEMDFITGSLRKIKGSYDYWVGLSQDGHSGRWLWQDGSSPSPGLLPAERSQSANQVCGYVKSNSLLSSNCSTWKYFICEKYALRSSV

Human CD209 = target: T11, Human CD209 (human, UniProt Q9NNX6 1-404)
T11 construct: also called hCD209
T11 sequence: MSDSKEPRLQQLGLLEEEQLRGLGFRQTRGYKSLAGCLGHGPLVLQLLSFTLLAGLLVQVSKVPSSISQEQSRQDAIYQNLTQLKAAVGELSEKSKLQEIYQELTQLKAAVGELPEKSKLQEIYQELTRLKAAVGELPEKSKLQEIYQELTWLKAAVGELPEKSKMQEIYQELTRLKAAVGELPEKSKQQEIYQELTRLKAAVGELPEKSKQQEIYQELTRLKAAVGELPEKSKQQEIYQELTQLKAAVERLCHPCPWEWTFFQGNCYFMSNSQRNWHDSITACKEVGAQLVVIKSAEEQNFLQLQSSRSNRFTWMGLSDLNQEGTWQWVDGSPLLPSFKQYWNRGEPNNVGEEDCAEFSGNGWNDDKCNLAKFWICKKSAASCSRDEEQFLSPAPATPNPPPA

Human Clec10A = target: T12, Human Clec10A (human, UniProt Q8IUN9 1-316)
T12 construct: also called hClec10A
T12 sequence: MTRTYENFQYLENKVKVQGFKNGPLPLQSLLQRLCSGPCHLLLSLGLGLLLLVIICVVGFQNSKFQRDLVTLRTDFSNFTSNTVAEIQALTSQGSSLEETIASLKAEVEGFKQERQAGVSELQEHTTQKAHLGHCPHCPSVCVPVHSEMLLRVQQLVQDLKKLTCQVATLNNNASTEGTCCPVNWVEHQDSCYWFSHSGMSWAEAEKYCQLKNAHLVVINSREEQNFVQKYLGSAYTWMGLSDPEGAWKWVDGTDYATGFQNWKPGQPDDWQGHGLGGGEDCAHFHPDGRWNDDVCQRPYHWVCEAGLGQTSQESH

Binder | MFI normalized to WT (human CD161) | MFI normalized to WT (Human KLRF1) | MFI normalized to WT (Human CD94) | MFI normalized to WT (Human KLRF2) | MFI normalized to WT (Human Clec12B) | MFI normalized to WT (Human Clec7A) | MFI normalized to WT (Human KLRG1) | MFI normalized to WT (Human OLR1) | MFI normalized to WT (Human Clec5A) | MFI normalized to WT (Human Clec9A) | MFI normalized to WT (Human CD209) | MFI normalized to WT (Human Clec10A)
KW1.2.1 (antibody, V domains shown) VH: EVQLVESGGGLVQPGGSLRLSCAASGSTFSSYAMSWVRQAPGKGLEWVSTISGSGGSTYYADSVKGRFTISRDNSRNTLYLQMNSLRAEDTAVYYCARGGLIPSGFDYWGQGTLVTVSS VL: DIQMTQSPSSPSASVGDRVTITCRASQSISSYLNWYQQKPGKAPKLLIYAASSLLSGVPSRFSGSGSGTDFTLTISSLQPEDFATYYCQQTYSTPLTFGQGTKVEIK | 172 | 1.14 | 1.13 | 1.05 | 1.11 | 1.25 | 1.24 | 1.28 | 1.13 | 1.24 | 0.96 | 0.94
KW1.3.12 (antibody, human IgG1, V domains shown) VH: EVQLVESGGGLVQPGGSLRLSCAASGFTFSSYAMSWVRQAPGKGLEWVSTISGSGGSTYYADSVKGRFTISRDNSRNTLYLQMNSLRAEDTAVYYCARGGLIPSGFDYWGQGTLVTVSS VL: DIQMTQSPSSLSASVGDRVTITCRASQSISSYLNWYQQKPGKAPKLLIYAASSLLSGVPSRFSGSGSGTDFTLTISSLQPEDFATYYCQQTYSAPLTFGQGTKVEIK | 163 | 1.02 | 1.07 | 1.08 | 1.1 | 1.38 | 1.25 | 1.24 | 1.19 | 1.11 | 0.91 | 0.9
KW7.2.2 (antibody, V domains shown) VH: not shown VL: DIQMTQSPSSLSASVGDRVTITCRASQSISSYLNWYQQKPGKAPRFLIYAASSLQSGVPSRFSGSGSGTDFTLTISSLQPEDFATYYCQQTYSTPLTFGQGTKVEIK | 145 | 1.18 | 1.29 | 1.12 | 1.37 | 1.46 | 1.3 | 1.42 | 1.24 | 1.42 | 1 | 0.9
KW7.3.7 (antibody, V domains shown) VH: EVQLVESGGGLVQPGGSLRLSCAASGFTFSSYAMSWVRQAPGKGLEWVSATSGSGGSTYYADSAKGRFTISRDNSKNTLYLQMNSLRAEDTAVYYCARGGYLPDAFDYWGRGTLVTVSS VL: DIQMTQSPSSLSASVGDRVTITCWASQSISSYLNWYQQEPGKAPKLLIYAASSLQSGVPSRFSGSGSGTDFTLTISSLQPEDFATYYCQQTYSTPLTFGQGTKVEIK | – | 1.19 | 1.01 | 1.03 | 1.05 | 1.18 | 1.06 | 1.15 | 1.08 | 1.01 | 0.85 | 0.89
KM12.2.3 (antibody, human IgG1, V domains shown) VH: EVQLVESGGGLVQPGGSLRLSCAASGFTFSSYAMSWIRQAPGKGLEWVSAISGSGGSIYYADSVKGRFTISRDNSKNTLYLQMNSLRAEDTAVYYCARGYSDSYFYGPYYTFDYWGQGTLVTVSS VL: DIQMTQSPSSLSASVGDRVTITCRASQGISSYLNWYQQKPGKAPKLLIYAASSLQSGVSSRFSGSGSGTDFTLTISSLQPEDFATYYCQQSYNTPLTFGQGTKVEIK | 122 | 1.18 | 1.36 | 1.37 | 1.33 | 1.11 | 1.42 | 1.33 | 1.41 | 1.42 | 1.48 | 1.44
KM12.4.7 (antibody, V domains shown) VH: EVQLVESGGGLVQPGGSLRLPCAASGFTFSSYAMSWIRQAPGKGLEWVSAISGSGGSIYYADSVKGRFTISRDNSKNTLYLQMDSLRAEDTAVYYCARGYSDSYFYGPYYTFDYWGQGTLVTVSS VL: not shown | 166 | 1.14 | 1.2 | 1.13 | 1.12 | 1.36 | 1.25 | 1.3 | 1.31 | 1.17 | 0.97 | 1.01
KW17.3.4 (antibody, V domains shown) VH: not shown VL: QSVLTQPPSVSGAPGQRVTISCTGSSSNIGAGYDVHWYQQLPGTAPKLLIYGNSNRPSGVPDRFSGSQSGTSASLAITGLQAEDEADYYCQSYNSGHTVFGGGTQLTVL | 143 | 0.91 | 0.97 | 1.03 | 1.09 | 1.16 | 1.08 | 1.03 | 1.12 | 1.13 | 0.94 | 0.98

Source: patent US20210122826A1 (MIT, published 2021)
